B1: library; numbered along this chain (parent)
chain: MATDAALRRLLRLHRTEIAVAVDSAFPLLHALADHDVVPEDKFQETLHLKEKEGCPQAFHALLSWLLTQDSTAILDFWRVLFKDYNLERYGRLQPILDSFPKDVDLSQPRKGRKPPAVPKALVPPPRLPTKRKASEEARAAAPAALTPRGTASPGSQLKAKPPKKPESSAEQQRLPLGNGIQTMSASVQRAVAMSSGDVPGARGAVEGILIQQVFESGGSKKCIQVGGEFYTPSKFEDSGSGKNKARSSSGPKPLVRAKGAQGAAPGGGEARLGQQGSVPAPLALPSDPQLHQKNEDECAVCRDGGELICCDGCPRAFHLACLSPPLREIPSGTWRCSSCLQATVQEVQPRAEEPRPQEPPVETPLPPGLRSAGEEVRGPPGEPLAGMDTTLVYKHLPAPPSAAPLPGLDSSALHPLLCVGPEGQQNLAPGARCGVCGDGTDVLRCTHCAAAFHWRCHFPAGTSRPGTGLRCRSCSGDVTPAPVEGVLAPSPARLAPGPAKDDTASHEPALHRDDLESLLSEHTFDGILQWAIQSMARPAAPFPS

Variants of: B1
Test: AIRE transcriptional activation functional score (insulin promoter-GFP; nonsense median 0, synonymous median 1) (normalised score); higher = higher AIRE activity (more reporter activation)
Conditions: with insulin promoter-GFP reporter in HEK293
Summary of the method: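 The functional score compares variant enrichment between select and non-select populations after subtracting wild type. To obtain it, codon-optimized AIRE NNN-codon libraries spanning three regions were placed by Bxb1 recombinase into Flp-In T-REx HEK293 landing-pad cells with an insulin core promoter-GFP reporter. Cells with the top 10% GFP and unselected integrants were tile-sequenced after mCherry+, BFP− integrants had been sorted at day 7 and grown 7 more days. Only variants with 10 counts per million in non-select were kept, rescaled to nonsense median 0 and synonymous median 1, and averaged across biological replicates.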

AIRE transcriptional activation functional score, by site and new letter:
A343: N 0.601; L 1.38; C 0.944; G 0.94; T 1.13; Y 1.09; H 1.02; F 1.38; E 0.95; Q 0.485; P 0.957; K 0.609; D 1.18; V 1.03; M 1.59; W 1.93; S 0.938; R 0.816; I 1.36
V345: H 0.756; E 0.982; I 0.913; W 1.52; T 1.24; M 1.28; L 1.03; S 0.912; C 1.04; F 1.36; D 1.02; Q 0.581; Y 1.02; K 1.22; N 0.989; P 1.06; G 1.12; R 1.14; A 0.719
V348: K 0.974; F 1; L 1.09; I 1.08; Y 0.929; E 0.956; H 1.33; N 1.08; P 0.929; D 1.01; A 1.1; M 0.509; S 0.865; W 1.37; T 1.04; G 1.04; R 1.19; Q 0.65; C 0.781
Q346: H 1.3; S 1.06; C 0.884; I 1.01; K 0.899; M 1.29; T 1.02; A 0.913; P 1.12; F 0.819; R 1.03; N 0.737; E 1.18; W 1.73; D 1.46; L 1.2; G 1.13; Y 0.906; V 0.378
T344: L 0.939; Q 1.12; A 0.851; G 1.16; E 0.714; V 0.896; I 0.748; K 1.16; H 1.29; P 1.07; S 1.06; Y 0.912; F 1.26; C 1.26; M 1.37; N 0.983; W 1.1; R 1.08; D 0.882
Q342: Y 1.06; N 0.925; S 1.13; C 1.09; G 0.963; P 0.83; T 0.546; D 0.916; K 1.04; W 1.73; M 1.09; L 0.929; F 1.08; V 0.754; H 0.916; E 0.971; I 1; A 0.362; R 0.876
C340: Y 0.989
L341: G 1.11; A 0.936; P 0.971; I 1.21; T 1.03; D 0.832; N 1.02; M 0.759; V 0.917; W 1.32; C 1.24; R 1.16; Y 0.945; K 0.983; H 0.986; S 0.767; F 1.01; E 0.957; Q 1.08
Q349: I 1.05; D 0.985; A 0.994; M 0.852; G 1.14; H 0.951; E 1.04; K 1.06; C 1.1; R 0.95; L 1.1; N 0.61; P 0.847; F 0.896
E347: W 1.24; D 1.21; R 1.23; K 1.11; A 1; Y 1.43; L 1.16; Q 0.943; H 1.32; N 0.719; S 1.12; P 1.14; F 1.28; C 1.15; G 1.17; V 0.892; I 1.15; T 1.26; M 1.06
